From the DeepSol protein solubility set

Experiment: soluble on expression in E. coli; label from the status in PepcDB or PDB records

| Sequence | soluble on expression in E. coli |
| --- | --- |
| MNRVEPPYDVKEALVFTQKMAQLSKALWKSIEKDWQQWLKPYDLNINEHHILWIAYQLNGASISEIAKFGVMHVSTAFNFSKKLEERGYLRFSKRLNDKRNTYVQLTEEGTEVFWSLLEEFDPTRNAVFKGSQPLYHLFGKFPEVAEMMCMIRHIYGDDFMEIFETSLTNIDNDFESVNGKLKKKAKDSAADEPAEELEPVNS | soluble |
| MNRWEKELDKYAELAVKVGVNIQPGQTLFVNAPLEAAPLVRKIAKTAYETGAKHVYVEWNDEALTYIKFHHAPEEAFSEYPMWRARAMEELAEQGAAFLSIYAPNPDLLKDVDPKRIATANKTAAQALANYRSAIMADRNCWSLISVPTPAWAQKVFGDLRDEEAIDKLWEAIFRITRIDHDDPIAAWRKHNDRLARIVDYLNNKQYKQLVYEAPGTNLTVELVDGHVWHGGAATSQSGVRFNPNIPTEEVFTMPHKDGVNGTVRNTKPLNYNGNVIDGFTLTFKDGQVVDFSAEQGYETLKHLLDTDDGARRLGEVALVPHQSPVSLSNLIFYNTLFDENAACHLALGKAYPTNIENGASLSKEELDRRGVNDSLVHVDFMIGSADLNIDGVTKDGKREPIFRSGNWAFELS | not soluble |
| MNRYITRGIANNLPNILQHQLWQLVSEREQEQTKDNTLVDYFHIFQFNTHRNQLYIKHKQERPAYVKTQKANINQPININKVYIIREDDVDLSYYIMLLPNEYLEHHHHHH | soluble |
| MNRYPGIPRNEWSAGWKRTACIVKAEDGSWGFGFTLHSGVTERIINDHLSKILIGRNCMSTEMLWDVMQQSTISYGTSGLSSFAISAVDNAIWDLKGKILDRPVYELIGGPQKDKIFCYASNTSFEYGTKNSIEWFLELGFKAVKLFLREGPESNLEGINRAEQLVASTREQVGKDVEIAVDAWMSLNNEYAVRLAEVLKPYRIKWLEDYLNPENLDGYQNLRNRIPWQTLATGEHWYSLYPFALAASKGIVDIFQPDLNWVGGITAGIKICHLAEAHGLSVIPHASTNYPYGQHLAFSMPSVPWAERSEGVSPPGVPLEEMVLLPGTPVIKDGYIIPSDAPGFGLEITEDWLRDRAV | soluble |
| MNSENSKWQAIQESTFALARKCEEFDSDGITVYLFSKTFQRYDYVNSAKVKQLFAENSPSETTNLVGVLQDAINSYFQRKSLGKTKPAGEVILVITDGAPVDSQAVCEVIIKATHLVESANELRISIIQVGSDSHATKFLKALDDHLQSVGAKFDICDTITLDELEITNLSDVLMKAITDLEHHHHHH | not soluble |
| MNSGNMQDTLDLEKKLRGYLFGTACADALGRPVEHLTLKQIKEKYGEKGILELPPNSSWTDDTQLMLVLARGLLHGAEFELPELMKHIAGELVLWLKEPDLGAGATTKGAALSLKDGIHWSESGLNSKTCGSLMRVGILGFIFSNDPDKLIEAASLSGRITHNHPTADAASVAGAYAVKLALDGIAPEDMFLPLLRVTEGISDEFTEALKHSYELAHSNLSDEEALQKLGQGWYADETFALAYFCILRYPDNYKKAVQTGVNITGDSDSVGSVAGGILGARLGIEAVPVSWVESLKEKEIIEEMVEPLIEKYLEVSENKHQVSEDGFGAMAGDPLEHHHHHH | soluble |
| MNSIHGHYHIQLSNYSAGENLQSATLTEGVIGAHRVKVETALSHSNLQKKLSATIKHNQSGRSMLDRKLTSDGKANQRSSFTFSMIMYRMIHFVLSTRVPAVRESVANYGGNINFKFAQTKGAFLHKIIKHSDTASGVCEALCAHWIRSHAQGQSLFDQLYVGGRKGKFQIDTLYSIKQLQIDGCKADVDQDEVTLDWFKKNGISERMIERHCLLRPVDVTGTTESEGLDQLLNAILDTHGIGYGYKKIHLSGQMSAHAIAAYVNEKSGVTFFDPNFGEFHFSDKEKFRKWFTNSFWGNSMYHYPLGVGQRFRVLTFDSKEV | not soluble |
| MNSMEHLLKQAIKLRKEKKYAQSKEILIGLTNFTRDAEVLYQCAWIHDVMGLETEAMPYYEQAIANGLEGESLCGAYIGLGSTYRCIGEYDKAITVLETGLQQFPGNDVMKVFLSLAKFNVNDHESAMKLLLETVVKLEHHHHHH | soluble |
| MNTAAGRKEDIRIPPRVAPDLNAPRVLVLNASYEPLQVTSIKRAITLLQYGVAEVLEQSRDVVRSPSTVMSVPSVIRLRRYVRRPRVGAVPFNRRNVLRRDHFTCQYCGSQDDLTMDHVHPRSRGGKHGWDNVVTACRTCNQRKGNLTPEEAGMPLHVPPHAPTFGVYAHGQFAHWQPEWSGYIRGLEHHHHHH | not soluble |
